The target of assay [1] is amyloid beta peptide Aβ 1–42 (fibrils).
In assay [2] the target is amyloid beta peptide Aβ 3–28 (fibrils).

Consider “human cystatin C (wild type) (from UniProt P01034 27-146) (natural protein)”, for which, in assay [1], the decrease of SANS scattering intensity at q < 0.01 between the beginning (300 s) and the end of the kinetic experiment (fibril disaggregation; 37 °C, deuterated HCC 1 mg/mL) was determined as 4%.

B1: human cystatin C (wild type) (natural protein)
chain: SSPGKPPRLVGGPMDASVEEEGVRRALDFAVGEYNKASNDMYHSRALQVVRARKQIVAGVNYFLDVELGRTTCTKTQPNLDNCPFHDQPHLKRKAFCSFQIYAVPWQGTMTLSKSTCQDA
modifications: 2H-labelled (deuterated) in D-HCC; protonated in H-HCC
For B1, in assay [2], the decrease of SANS scattering intensity at q < 0.01 between the beginning (300 s) and the end of the kinetic experiment (fibril disaggregation; 37 °C, deuterated HCC 1 mg/mL, 1–10 h) was more than 70%.

Source of the values: paper PMC10682421.
